US12139520B2 (priority 2020, dated 2024)
Bridge positions count the residues as written; N and C are the ends. Square brackets hold non-standard residues; d marks the D form. Ends that are not written are not given here. Hyp = O=C(O)[C@@H]1C[C@@H](O)CN1; Cit = NC(=O)NCCC[C@H](N)C(=O)O

T1: hAMY3R (human, UniProt P30988)
T1 sequence 1: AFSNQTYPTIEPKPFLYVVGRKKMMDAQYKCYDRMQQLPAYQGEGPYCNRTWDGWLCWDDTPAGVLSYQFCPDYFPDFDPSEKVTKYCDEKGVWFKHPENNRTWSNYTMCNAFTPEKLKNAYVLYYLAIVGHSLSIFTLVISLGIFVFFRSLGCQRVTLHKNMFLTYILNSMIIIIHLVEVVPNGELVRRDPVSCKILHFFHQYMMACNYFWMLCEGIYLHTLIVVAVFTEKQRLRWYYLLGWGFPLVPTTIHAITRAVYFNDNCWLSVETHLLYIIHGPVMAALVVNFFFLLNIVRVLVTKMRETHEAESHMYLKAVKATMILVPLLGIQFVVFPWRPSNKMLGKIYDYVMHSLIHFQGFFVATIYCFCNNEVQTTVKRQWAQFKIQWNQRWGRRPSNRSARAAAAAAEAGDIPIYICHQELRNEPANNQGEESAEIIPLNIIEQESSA
T1 sequence 2: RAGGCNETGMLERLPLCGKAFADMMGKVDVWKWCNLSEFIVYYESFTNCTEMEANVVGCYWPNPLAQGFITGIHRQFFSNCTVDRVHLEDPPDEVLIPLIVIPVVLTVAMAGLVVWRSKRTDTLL


How the values were obtained:
hAMY3R = biological target: T1, hAMY3R; experiment: cell-based or functional assay
hAM1R = hAM1R (human, UniProt Q16602); experiment: cell-based or functional assay

Binder | hAMY3R EC50 (cAMP) (hAMY3R) [nM] | hAM1R EC50 (cAMP) (hAM1R) [nM]
GCRFGTCTVQWLAHQIYQFTDKDKDNVAPRTKVGPQG[Hyp]-NH2 (disulfide 2-7 (inferred); ends not checked) [SEQ ID NO: 322] | 0.014 | 1390
KCNTATCTVQWLAHQIYQFTDKDKDNVPPTNVGSNG[Hyp]-NH2 (disulfide 2-7 (inferred); ends not checked) [SEQ ID NO: 318] | 0.009 | > 5000
KCNTATCTVQWLAHQIYQFTDKDKDAVAPPTNVGSNG[Hyp]-NH2 (disulfide 2-7 (inferred); ends not checked) [SEQ ID NO: 324] | 0.028 | > 5000
GCRFGTCTVQWLAHQIYQFTDKDKDNVAPRTNIGPNG[Hyp]-NH2 (disulfide 2-7 (inferred); ends not checked) [SEQ ID NO: 331] | 0.006 | 3570
KCNTATCTVQWLAHQIYQFTDKDKDNVAAPTNVGSNG[Hyp]-NH2 (disulfide 2-7 (inferred); ends not checked) [SEQ ID NO: 325] | 0.025 | > 5000
KCNTATCTVQWLAHQIYQFTDKDKDNVAPPTNVGSNG[Hyp]-NH2 (disulfide 2-7 (inferred); ends not checked) [SEQ ID NO: 330] | 0.008 | > 5000
KCNTATCTVQWLAHQIYQFTDKAKDNVAPPTNVGSNG[Hyp]-NH2 (disulfide 2-7 (inferred); ends not checked) [SEQ ID NO: 320] | 0.009 | > 5000
KCNAATCTVQWLAEQIYQFTDKDKDNVAPPTNVGSNG[Hyp]-NH2 (disulfide 2-7 (inferred); ends not checked) [SEQ ID NO: 333] | 0.236 | 107
KCNTATCTVQWLAHQIYQFTDKDKDNVAPATNVGSNG[Hyp]-NH2 (disulfide 2-7 (inferred); ends not checked) [SEQ ID NO: 316] | 0.012 | > 5000
RCQTSTCTVARLAEQIAQYTDKDKDQVAPPTNVGSNS[Hyp]-NH2 (disulfide 2-7 (inferred); ends not checked) [SEQ ID NO: 32] | 0.008 | > 5000
KCNTATCTVQWLAHQIYQFTKDKDNVAPPTNVGSNG[Hyp]-NH2 (disulfide 2-7 (inferred); ends not checked) [SEQ ID NO: 317] | 0.004 | > 5000
KCNTATCTVQWLAHQIYQFADKDKDNVAPPTNVGSNG[Hyp]-NH2 (disulfide 2-7 (inferred); ends not checked) [SEQ ID NO: 313] | 0.004 | > 5000
KCNTATCTVQWLAHQIYQFDKDKDNVAPPTNVGSNG[Hyp]-NH2 (disulfide 2-7 (inferred); ends not checked) [SEQ ID NO: 329] | 0.032 | > 5000
KCNTATCTVQWLAHQIYQFTDKDKDNAAPPTNVGSNG[Hyp]-NH2 (disulfide 2-7 (inferred); ends not checked) [SEQ ID NO: 315] | 0.012 | > 5000
GCRFGTCTVQWLANFLYQFTDKDKDNVAPRTNVGPQGY [SEQ ID NO: 311] | 0.06 | > 5000
GCRTGTCTVQWLAHQIYQFTDKDKDNVAPRTNVGPQGY [SEQ ID NO: 335] | 0.015 | > 5000
GCRFGTCTVQWLAHFLYQFTDKDKDNVAPRTNVGPQGY [SEQ ID NO: 326] | 0.053 | > 5000
GCRFGTCTVQWLAHFLYQFTDKDKDNVAPRTNVGSNTY [SEQ ID NO: 327] | 0.09 | > 5000
KCNTATCTVQWLAHQIYQFTDKDKDNVAPRTEVGSNGY [SEQ ID NO: 334] | 0.013 | > 5000
KCNTATCTVQRLAHQIYQFTDKDKDNVAPRTKVGSNGY [SEQ ID NO: 34] | 0.009 | 54.6
KCNTATCTVQWLAHQIYQFTDKDKANVAPPTNVGSNG[Hyp]-NH2 (disulfide 2-7 (inferred); ends not checked) [SEQ ID NO: 314] | 0.008 | > 5000
KCNTATCTVQWLAHQIYQFTDKDKDNVAPRTKVGSNG[Hyp]-NH2 (disulfide 2-7 (inferred); ends not checked) [SEQ ID NO: 312] | 0.012 | > 5000
GCRTGTCTVQWLAHQIYQFTDKDKDNVAPRTNVGPNGY [SEQ ID NO: 332] | 0.007 | > 5000
GCRTGTCTVQWLAHQIYQFTDKDKDNVAPRTNVGPQG[Hyp]-NH2 (disulfide 2-7 (inferred); ends not checked) [SEQ ID NO: 323] | 0.014 | > 5000
RCQASTCTVA[Cit]LAEQIAQYTDKDKDQVAPPTEVGPNS[Hyp]-NH2 (disulfide 2-7 (inferred); ends not checked) [SEQ ID NO: 33] | 0.008 | > 5000
KCNTATCTVQWLAHQIYQFTDADKDNVAPPTNVGSNG[Hyp]-NH2 (disulfide 2-7 (inferred); ends not checked) [SEQ ID NO: 328] | 0.01 | > 5000
KCNTATCTVQWLAEQIYQFTDKDKDNVAPPYNEGSNG[Hyp]-NH2 (disulfide 2-7 (inferred); ends not checked) [SEQ ID NO: 321] | 0.317 | > 5000
KCNTATCTVQWLAHQIYQFTDKDKDNVAPTNVGSNG[Hyp]-NH2 (disulfide 2-7 (inferred); ends not checked) [SEQ ID NO: 319] | 0.018 | > 5000
